Earlier results in patent publication US6632836B1, “Carbocyclic potassium channel inhibitors” (Merck & Co., Inc., priority 1998, dated 2003).

Target: T1, Kv1.3 channels (Homo sapiens, UniProt P22001)
T1 construct: expressed in transfected cells; host or cells: CHO cells
Conditions: reference blocker used at saturating concentration to establish the efflux window; read-out: IC50 as blocker of Kv1.3 channels

T1 sequence (P22001 whole entry): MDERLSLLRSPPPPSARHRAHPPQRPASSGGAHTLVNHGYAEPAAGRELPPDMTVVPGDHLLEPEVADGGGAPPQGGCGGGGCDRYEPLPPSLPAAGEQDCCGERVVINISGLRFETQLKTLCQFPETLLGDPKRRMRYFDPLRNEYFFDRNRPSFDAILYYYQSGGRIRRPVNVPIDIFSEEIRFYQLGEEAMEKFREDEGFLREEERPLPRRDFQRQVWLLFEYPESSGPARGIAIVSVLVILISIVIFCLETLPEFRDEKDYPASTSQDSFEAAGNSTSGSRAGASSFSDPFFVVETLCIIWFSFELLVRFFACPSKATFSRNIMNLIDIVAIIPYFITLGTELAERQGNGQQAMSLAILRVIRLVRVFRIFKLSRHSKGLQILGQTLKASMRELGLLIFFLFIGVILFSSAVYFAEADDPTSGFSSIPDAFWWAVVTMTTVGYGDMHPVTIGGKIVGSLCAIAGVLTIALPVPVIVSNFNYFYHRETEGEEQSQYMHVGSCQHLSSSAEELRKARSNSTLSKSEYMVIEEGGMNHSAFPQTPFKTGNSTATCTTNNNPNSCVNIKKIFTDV

Question: With “margatoxin (TIINVKCTSPKQCLPPCKAQFGQSAGAKCMNGKCKCYPH; UniProt P40755 1-39, looked up)” as the substance, how does the IC50 read?
Answer: 0.1 nM
